This note sets out measurements from the domain aggregation screens of Martell et al. (2025).

A short description of this data set: soluble fraction after stress (log2 fold change); higher = more stays soluble; pooled small domains, quantitative proteomics. The conditions noted are these: stress: 50 degC. The method in brief: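 Pooled custom libraries of small protein domains were measured in a high-throughput format, with quantitative proteomics as the read-out. Each library was stressed at 50°C. Aggregation propensity is given as the base-two logarithm of the fold change in how much of each protein stays soluble after the stress. Higher values mean a larger share of the protein remains in solution.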

For “HMVDDELTARRRVNLRRIADELGGAAAVARKTQKSVQQISSMLNGTKSFGSKIARDIEPKLGLPLQSLDKE”, the “soluble fraction (log2)” value worked out at 0.128.
With “HMNMKVGPVPANVVPANIKAHVSNNYSKYQIVQMMQNDKGYQVKLSNGTDLYYDKDGNILKTS”, the “soluble fraction (log2)” value is 0.196.
The figure for “HMHTDQVLVMTRAVGQGEIVRNTDVGLTSVAVDRAVTTIPASQLDEIVGRHALVDLSAGQLLGSHSVGA” is 0.0253.
“HMRLPNGYGSITKLSGKRRKPFMVRITTGYDNEGKQLMSVLGYYATRTEALAVLAEYNKNPYNPI”: the “soluble fraction (log2)” value was -2.57.
Consider “HMSMDPYTVLGVNKSSTDSQIKNAYKNLAKQHHPDRGGNEAKFKEISTAYEQIKTAEKRQQYDMSQQF”, for which the “soluble fraction (log2)” value turned out to be 0.383.
As for “HMKTIQVGSTVRVNQGAKTYSGGGLASFVYKRNHKVSQLQGDRAVITYEGTVVAAVHVSDLSLIH”, the “soluble fraction (log2)” value is -0.062.
“HMKSFDERQAALNELAKVIEGTGRKAEQDAEFRREQNQLMIDKIDEQLKGDLTDSQREELKKERAALARK”: the “soluble fraction (log2)” value was 0.153.
Take “HMDAVDKDGNHMTFKKWSEQLQEAFHALELYDTTRAKQILSELVKFQVDSDITKSLKAIITNIDDMMA”: the “soluble fraction (log2)” value is -0.338.
The figure for “HMASKTGTITATSLNVRSGAATTYSILGTLSNGKTVTIYEESNGWYKINYNGGYGWVSKTYVSTG” is -0.435.
The figure for “HMFVGVDMAVKEEIGKEGVAFTDLRPAGKVSIGDDVYDAVSETGAFITRGTSVRVLKYQAGQVYVVK” is -0.154; for “HMPSKTFYNLSQEKQQKIIDASEKEFSNNLYQDVSLNQIIKNSNISRGSFYMYFTDKEDLYFYLLNEY” it is 0.275.
In the case of “HMVLVKFEWTPPDARILVDDHPVEARDKEMELPEGTHHVQALAPRGSGYESTVTDIEVRQGMDPVRIAL”, the “soluble fraction (log2)” value was -0.182.
As for “HMTRVDALDQLAAIRFSSHIFAEDQDLRMVVVDGQRIGEGDIVRDEIRLEQITETGVIFEYQGERFPIDV”, the “soluble fraction (log2)” value was -1.42.
In the case of “HMGKTTQEIEERSSTSTLTLTQTPKEIISVQGKKSDQSFFTNIQYTQNGKVIVPKQTGIYDTIKVVFTVSL”, the “soluble fraction (log2)” value was -1.2.
Regarding “HMGYDLLFQQALGFHEQGRLNEAENIYRQILETAPNNPDILNLLGLIAQQKGLHAQAVDYFYQAIRL”, the “soluble fraction (log2)” value was -1.41.
The figure for “HMVTDSGEIEKLVDEVIDNNPDQVQQFREGKQQVLSYLVGQAMKLSRGKANPNQVNQFLRDKL” is 0.291; for “HMGEVPPGWSVEALAAIERDLAHHVGPVARVLVQRGARLHTTTDDLRSALANAITDDLARRRFMQP” it is -0.416.
In the case of “HMSSGTAYATDAVNVRSGPGTSYTVLGYLSRGEKVTITGTVSNGWTQIQLPGNRLGYVSSAYLSASYPS”, the “soluble fraction (log2)” value is -0.259.
With “HMNQKVRQLLSQAQAEMERKNYKQAIKLLDQALAIEPHSGELHFMKGYAWMSMGEFEKALESLYEARNYA”, the “soluble fraction (log2)” value is -0.399.
In the case of “HMSVLEHVSGNVRRLRLQAGLSQEALARAASVSRRMLVGIESGDVNVSLSTLDRIAAALGVLFPDLVQAP”, the “soluble fraction (log2)” value was -1.52.
For the sequence “HMSEQVTMIDVEGKTETEAKKALEDLGLKVEITYESADAAAGTVIGQDVKAGSTVSEGSRVTLTVSGQ”, the “soluble fraction (log2)” value was 0.0626.
“HMDGKTALQEIVASSGWSPPEYKVSESGPDHDKDFVAYAIVNGVAYPEGHGKSKREAEQVAARIAFEALSK”: the “soluble fraction (log2)” value is -0.18.
As for “HMAGAPANLAARLREQILQGAYHDGQRLPAERHLAAEHGVSRGTVREALRLLEQGALLTRKRGSGSYVTYP”, the “soluble fraction (log2)” value is -0.314.
“HMPAWKINQELQATVIATKANQTRLRIEGQTFETQTAIALKPGQSLLIKVVSLEPQISFALI”: the “soluble fraction (log2)” value is -1.45.
In the case of “HMGSLPPPKDGTTIYVVKPGDSLWRISGKFFGNPLFWPRLWEINPNIDNPNKIYPGDVISLKP”, the “soluble fraction (log2)” value came to 0.00421.
Take “HMTETELYDEVNRLIGLHLSERDRMILIMRDRDEFEIDAIAARTGLSEGNIRLILSRARRTVREAYRNNI”: the “soluble fraction (log2)” value was -3.74.
“HMIDELNVGDIRFYLNRYGKEIQIEIIRIGDDGSVYARTMADNALFRVPEARLKNIGEKVPAEEVQRG”: the “soluble fraction (log2)” value was -0.742.
The figure for “HMDIVLPFSFAKRHGVVLSERQGETELLYLKGLPVRVLAEARRVLRQEFTVRQVEQAVFDKALSESYQN” is -1.04.
Consider “HMGSIRDIIVQYLSKFDDPQPAAKIVEYVQQYRDTTESSIRSSMGSGDQFVQFSGGLYGLKDKTYAAWYSI”, for which the “soluble fraction (log2)” value is -0.321.
The figure for “HMKIKKIWFDGDYIYGMDERNNTYRQSLLWYSKLRNASAEERERYTFSTIGIHWRELDEDVSFESF” is -3.14; for “HMALHDTLSYEEYLDLGLNGKADSAEKRELVAHALHLGRPNAKTLYKRLNMLQLNRKDVAALLEQ” it is 0.0249.
Take “HMQQIQILPDGKIKLPDLSGTNMREAIEILHKGGLRMKPYGSGNAYQQKPAAGETVASGTTVEVLSL”: the “soluble fraction (log2)” value came to 0.0457.
The same measure for “HMETKIKFQIQTLDELNIRKVADWDAKAITTVKKGQILDVVDTVAAKNGSTPMYRLESGLYITASPKYVKK”: -0.376.
“HMNVTIGESIKNVINHYGTPIYSYNPNNQEKYYEFHTNKGVLVVTAIGKKNTGYVTRVSMTY”: the “soluble fraction (log2)” value was -1.18.
As to “HMSGSLLQTRQRLQALTDLGHYKGDLAAAWGPEAIEALKRAQAALGITVDGKWGPETEDAIQVALQAQT”, the “soluble fraction (log2)” value was 0.0305.
The same measure for “HMQYKTRVINLSILEVGMVLGRDLINKDGKIIVKKDVAISDFLKDHLIGLSKIKEIEPQIYIKV”: -1.08; for “HMGVDIAEHDGQPAVSIRKGAAESVAQWVKDQGGTFPQEVEMTVQNVARAGGTPLVVARGRDVLGVIYLKD”: 0.0501; for “HMFEARNTTFSEDGKTITETYGVKRIETEFVSDSTIVQKLYDNDVLTKTKTITFSADGLSIKEDV”: 0.0154.
On to “HMSFDTFKKVFSNLVEKSGYSDAEIARRLGVNRSTISRWKSGEQSPPLPKVKEIANFFGVSPMVFVD”, for which the “soluble fraction (log2)” value came out at 0.0554.
On to “HMGGNDALEIAKSNPQVIEVLGEPVTKDGMGSYSVNYKNGHKTSEATIPIEGPNGTATLHVKTSGSDDAL”, for which the “soluble fraction (log2)” value amounted to 0.261.
Consider “HMQYDSYTVEEPAKLLDWLLAHLRQSRTKIKATLQGHGIKVNGKTVTQFDYPLEPGMKIRVSLTK”, for which the “soluble fraction (log2)” value turned out to be 0.159.
Take “HMIILYTDEQQRIIDRLNEFIGEQPSQNEAAKLLGISAPILTNLRKGTYTGTVDKFMNKLAAYFNIKADLG”: the “soluble fraction (log2)” value is -1.05.
As for “HMAFKDDDVQKAYDRYMDRYGELSVLYSDNGLKVDDDLFYKNNIPPNGKFTKEFFDELYELVNMEFINNY”, the “soluble fraction (log2)” value was -0.0827.
On to “HMLKNYATPEQRAQLDMLKDKGIIGENELMQLGKYPSQDKASEVLENHADAVKMLDSDEISNRAEAIRSHD”, for which the “soluble fraction (log2)” value came to 0.134.
As for “HMAVQAESDIIKRAALLRNLGNTSMQLKNIDQAIDFYKQGIKLHPEDAELKYNLSQALRQKSQSNN”, the “soluble fraction (log2)” value was 0.0399.
The figure for “HMNMEPNWLKWAKQLAALAQNGLTYSDNPYEIERYEHIRRIAAEMMAEGFELDTKTILELFPREKG” is -2.05; for “HMGDFLLTPHRGRSADFVIGNPPYIRLEDVPNDISDAYRAEYASMPGRADIHVGFYEKGLDL” it is -0.142; for “HMPATPDATVQAVQQRLNELGYDVGSADGLMGRGTRSAIIAFQQDRGLAATGVADQALLLQLQP” it is 0.208.
With “HMTVPAGIVLSSIRQDGDVLHIRGTAQSTERLNFFRNSFSASWGSPAQNGKRKADPVTGLVDFTISLK”, the “soluble fraction (log2)” value is -0.677.
The same measure for “HMDGEINPYTGREYVTNSVRMHPRRIGYVQVYSRKDHKWTDMTEWAFLGEQERKKVLLGKAYEPPVYL”: -1.55; for “HMSNPADDVVDLLRQLRLPHMRAAAPELLATAKAQRWDPAEAIRALLTEELAGRQASSINARRK”: -0.406; for “HMKSKNILLGEYKGKEVHVGEGKYGPFILYDKKFKSIGAYLTENSLMLKDLTIEDYSKIMKFTENSNSKS”: -0.651.
For the sequence “HMNFAERIKELRKEKGITQIDLAEAVGLSKGTVAMWEVDKREANFDTLNKLSDYFQVSIDYLLGRSNDRS”, the “soluble fraction (log2)” value was 0.0272.
Take “HMKIVPEPGTVLIREYQEERHEVTVTLDGAFDYKGTLYSSLSEIARLITGTRWSGPVFFGLRS”: the “soluble fraction (log2)” value was -0.4.
The same measure for “HMNIGEKIKKIRTQQNKSTYELADIINKNGFKISQSAISKIENGRKKIDIETLEEIAKALDIEVDLLIT”: -0.14; for “HMGPELGENEKLIFDIIKKESKMELGILKAQVDLSNKKWDKALKGLATHGLTKVNKTDDGLFIELI”: -0.095; for “HMTETNSVTINERLTLYRRSRSGRWQARVKLNTGEWHRFSTGTADFEKAKESAHRELHNVGFRAENNLPQ”: -0.598.
Turning to “HMNGKTIEVPDITEKSIAEAQLILNQKKLRYNVVDSTRFDPAYLPFSVLTQEPEAGDEVKKNRTIYITLNP”, the “soluble fraction (log2)” value was -0.0871.
As for “HMTESIKRDEAIRLNNGRIYTLDAAKIGTNEYEVMLFNPRTGEEIDSAKTSTEADAILQFDRLRRMYHR”, the “soluble fraction (log2)” value was 0.1.
As to “HMADGTSIYAEREVLYVTSPTANTAKVYNVSGALVRTMTLSAGQTVRTALPAGFYVVALGNGNTHKVIV”, the “soluble fraction (log2)” value was -0.889.
The figure for “HMDDPTVILFDPKNGQRKIVKWKAGLTLYSARRSAGISSAAEATIQRAGKSLSGRTATALEPGDVIRW” is -0.953; for “HMRRSKVMLESILDEIPQMGQARRAALLEQFGSVAALRKASLAEIAMTPGIGEKIAVIIFEYLQKSSH” it is -1.17.
Take “HMDVQPHIYLRKLDQFWPADLHSLILYTLDGRRLWSADSGNIPALPHRASSLVILEATWDNGQRTRRKQFL”: the “soluble fraction (log2)” value was -1.63.
With “HMNYTSEDIKLASELFFHLLNNRILPANDVLASQYYDNNEIREILENMAEEGGLRIFGTRENLHLVSNGE”, the “soluble fraction (log2)” value is -0.432.
As for “HMSRQAPIGHRIRGRRKDIGMTQNALAKAAGISPSYLNLIEHNRRSIGGGLLMRIAAILDIHPHTL”, the “soluble fraction (log2)” value was -2.23.
Consider “HMTSRFITTEEGTLYVDADGRKVSGWQTIDGSRYYFDEHGIRQSGTIEVNGETYVLDEDGVL”, for which the “soluble fraction (log2)” value was found to be 0.0747.
The same measure for “HMTDFLKTRIDTLGLSTRTLNALSEANVRTIGGIARKKQEDLLEIDGIGEKGIQEIKKMLGEYGITL”: -0.126; for “HMTQLPEVPVERGMVLEEVQSGWVGAVTRVEKSGGMHVVALEDRRGKSRSFRLGFGFLLEGQPIRLMPPAP”: -1.42.
